± gives the standard deviation of the averaged measurements.
B1: library; a variant is named by its letters at N, in order (parent)
chain: AATGTTGTTGATGCAACCATAAAGTGATATTTAATAATTATTTATAATCAGCAACTTAACCACAAAACAACCATATATTGATATNTCACAAAACAACCATAANTTGATATTTTTGTGAATCGAGTATTTCAGCAAAACTACTGCAGTAAGAA

Experiments:
[1] = variants of: B1; assay: relative integration efficiency (T-LR orientation) vs wild-type transposon end (log2 (normalized fold change)); transposon end mutated: left end; higher = more efficient transposition; conditions: with VchCAST RNA-guided transposition machinery (E. coli BL21(DE3) host, lacZ target)
Procedure: (§1)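 Pooled, barcoded VchCAST (Tn6677) mini-transposon donor libraries; each variable transposon-end sequence sits in a fixed pDonor mini-transposon context (10-bp barcode and cargo not included). Left- or right-end libraries were co-transformed with pEffector (TniQ-Cascade, TnsABC, lacZ crRNA, T7, 0.1 mM IPTG) into E. coli BL21(DE3) and grown 18 h at 37 C. T-LR and T-RL junction amplicons were sequenced; output/input barcode fold change was normalised to the mean of four wild-type barcodes and log2-transformed. Two biological replicates; zero-count/undetected variants carry floor values (-10 / -15), censored here. Barcode uncoupling by PCR recombination adds noise.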

[2] = variants of: B1; assay: relative integration efficiency (T-RL orientation) vs wild-type transposon end (log2 (normalized fold change)); transposon end mutated: left end; higher = more efficient transposition; conditions: with VchCAST RNA-guided transposition machinery (E. coli BL21(DE3) host, lacZ target)
Procedure: as §1

## TA A70C T76A T84A C87A A102T T111C T113C
[1]
  relative integration efficiency (log2): 0.619 ± 0.14
[2]
  relative integration efficiency (log2): 0.128 ± 0.4

## CG A15C A16C
[1]
  relative integration efficiency (log2): -0.641 ± 0.48
[2]
  relative integration efficiency (log2): 0.081 ± 0.27

## TG A16C G24T T30A A70C T76A T84A C87A
[1]
  relative integration efficiency (log2): -0.916 ± 0.88
[2]
  relative integration efficiency (log2): -0.362 ± 0.11

## CG A11C T12G G13T C14A
[1]
  relative integration efficiency (log2): -1.55 ± 0.089
[2]
  relative integration efficiency (log2): -0.699 ± 0.47

## TA A16C G24T T32G A33C T76A A77G C87T A96C T110A T113A
[1]
  relative integration efficiency (log2): -1.08 ± 1.6
[2]
  relative integration efficiency (log2): -0.54 ± 0.44

## TA A70C T76A T86G T104A T110A T113A
[1]
  relative integration efficiency (log2): 0.0387 ± 0.67
[2]
  relative integration efficiency (log2): -0.344 ± 0.23

## CC A23T A77T
[1]
  relative integration efficiency (log2): 0.131 ± 0.37
[2]
  relative integration efficiency (log2): -0.225 ± 0.1

## CG A19T
[1]
  relative integration efficiency (log2): -0.706 ± 1.6
[2]
  relative integration efficiency (log2): -0.267 ± 0.38

## CG A19G
[1]
  relative integration efficiency (log2): -0.219 ± 0.077
[2]
  relative integration efficiency (log2): -0.352 ± 0.074

## CG A19C
[1]
  relative integration efficiency (log2): -1.53 ± 1
[2]
  relative integration efficiency (log2): -1.49 ± 0.49

## TA G24A T30A T76A T78G C87A A96C T110A T113A
[1]
  relative integration efficiency (log2): 0.291 ± 0.89
[2]
  relative integration efficiency (log2): 0.0775 ± 0.15

## CA G24A T30A A102T T111C T113C
[1]
  relative integration efficiency (log2): 0.116 ± 0.42
[2]
  relative integration efficiency (log2): -0.31 ± 0.36

## CG A1C A2C
[1]
  relative integration efficiency (log2): -0.0923 ± 0.12
[2]
  relative integration efficiency (log2): -0.242 ± 0.0032

## TA A23G G24T A33T A70C T76A T86G A96C T110A T113A
[1]
  relative integration efficiency (log2): 0.0515 ± 0.56
[2]
  relative integration efficiency (log2): 0.0613 ± 0.44

## TA A23G G24T A33T A70C T76A T86G A96C T112G T113C
[1]
  relative integration efficiency (log2): -0.361 ± 0.74
[2]
  relative integration efficiency (log2): -0.338 ± 0.051

## CC A23T G24C A77T T78A T104A
[1]
  relative integration efficiency (log2): -0.642 ± 0.69
[2]
  relative integration efficiency (log2): -0.611 ± 0.28

## CG A19T A73T A99T
[1]
  relative integration efficiency (log2): -2.5 ± 0.48
[2]
  relative integration efficiency (log2): -2.22 ± 0.88

## CA A23G G24T A33T T104A T110A T113A
[1]
  relative integration efficiency (log2): -0.166 ± 0.3
[2]
  relative integration efficiency (log2): -0.424 ± 0.22

## TA A22T G24T T31C A33C A70C T76A T86G T104G T113A
[1]
  relative integration efficiency (log2): -0.49 ± 0.73
[2]
  relative integration efficiency (log2): -0.861 ± 0.53

## CA A16C G24T T32G A33C A96C T112G T113C
[1]
  relative integration efficiency (log2): -1.27 ± 0.78
[2]
  relative integration efficiency (log2): -0.695 ± 0.12

## TA A70C T76A T86G A96C T110A T113A
[1]
  relative integration efficiency (log2): -0.0134 ± 0.035
[2]
  relative integration efficiency (log2): -0.255 ± 0.15

## TA A23G G24T A33T T76A A77G C87T A102T T111C T113C
[1]
  relative integration efficiency (log2): -0.439 ± 0.39
[2]
  relative integration efficiency (log2): -0.836 ± 0.54

## TA G24A T30A T76A T78G C87A A96C T112G T113C
[1]
  relative integration efficiency (log2): 0.0921 ± 0.22
[2]
  relative integration efficiency (log2): 0.299 ± 0.056

## TA A23G G24T A33T T76A T78G C87A A96C T112G T113C
[1]
  relative integration efficiency (log2): 0.535 ± 0.16
[2]
  relative integration efficiency (log2): 0.327 ± 0.1

## CG A1T A2T T3A G4T T5A
[1]
  relative integration efficiency (log2): -0.359 ± 0.037
[2]
  relative integration efficiency (log2): -0.373 ± 0.043

## CA A22T G24T T31C A33C A96C T112G T113C
[1]
  relative integration efficiency (log2): -0.822 ± 0.81
[2]
  relative integration efficiency (log2): -0.76 ± 0.32

## TA T76A T78A T84A C87A T104G T113A
[1]
  relative integration efficiency (log2): 0.188 ± 0.023
[2]
  relative integration efficiency (log2): -0.245 ± 0.21

## TA A22T G24T T31C A33C T76A T78G C87A A102T T111C T113C
[1]
  relative integration efficiency (log2): -0.662 ± 0.16
[2]
  relative integration efficiency (log2): -0.645 ± 0.14
